Measured values from patent publication US20230312740A1 (VIRTUOSO BINCO, published 2023).
Where a chain is given by its changes, count along the chain named.

Key:
[1] = biological target: ICAM1 on the surface of tumor cells (human, UniProt P05362 28-532); experiment: cell-based or functional assay
Avi-human CD38 ECD [2] = biological target: T1, Avi-human CD38 ECD (human, UniProt P28907 43-300); experiment: SPR
T1 construct: eluted as a monomer; also called hCD38; huCD38

Human ICAM1 ECD-Avi = biological target: T2, Human ICAM1 ECD-Avi (human, UniProt P05362 28-480); experiment: SPR
T2 construct: eluted as a monomer; also called hICAM1; recombinant ICAM1

[3] = biological target: T3, CD38 on the surface of tumor cells (human, UniProt P28907 1-300); experiment: cell-based or functional assay
[4] = biological target: T3, CD38 on the surface of tumor cells; experiment: cell-based or functional assay; remark: listed apart in the source
Avi-human CD38 ECD [5] = biological target: T1, Avi-human CD38 ECD; experiment: ELISA on human CD38 ECD; class A = EC50 0.02 nM - 0.1 nM (table legend)
Avi-human CD38 ECD [6] = biological target: T1, Avi-human CD38 ECD; experiment: ELISA on human CD38 ECD; class C = EC50 >0.5 nM (table legend)
Avi-human CD38 ECD [7] = biological target: T1, Avi-human CD38 ECD; experiment: ELISA on human CD38 ECD; class B = EC50 0.1 nM - 0.5 nM (table legend)

B1: h11F2-6 (antibody, V domains shown)
VH: EVQVLESGGGLVQPGGSLRLSCAVSGFSLSSHAMGWVRQAPGKGLEWIGIIGSSDRTYYASWAKGRFTISKDNSKNTVYLQINSPRAEDTAVYYCVRDPYDSYDEGYRLWGQGTLVTVSS
VL: DIQMTQSPSTLSASVGDRVTITCQASQSIYRYLSWYQQKPGKAPKFLIYDASKLASGVPSRFSGSGSGTEFTLTISSVQPDDFATYYCQQAYSSGSIDNAFGGGTKVEIK
For B1, the “ADCC EC50 on Daudi cells; antibody made in CHO FUT8 -/- (afucosylated)” value [1] was 8 pM, the “ADCC EC50 on HuNS1 cells; antibody made in CHO FUT8 -/- (afucosylated)” value [1] was 40 pM and the “ADCC EC50 on NCI-H2291 cells; antibody made in CHO” value [1] was 329 pM. The “ADCC EC50 on NCI-H2291 cells; antibody made in CHO FUT8 -/- (afucosylated)” value [1] was 19 pM, the “ADCC EC50 on NCI-H2342 cells; antibody made in CHO” value [1] was 690 pM and the “ADCC EC50 on NCI-H2342 cells; antibody made in CHO FUT8 -/- (afucosylated)” value [1] was 70 pM. The “ADCC EC50 on Raji cells; antibody made in CHO FUT8 -/- (afucosylated)” value [1] was 38 pM.

B2: αCD38(scFv) x αICAM1 (bispecific antibody, human IgG1, kappa)
heavy: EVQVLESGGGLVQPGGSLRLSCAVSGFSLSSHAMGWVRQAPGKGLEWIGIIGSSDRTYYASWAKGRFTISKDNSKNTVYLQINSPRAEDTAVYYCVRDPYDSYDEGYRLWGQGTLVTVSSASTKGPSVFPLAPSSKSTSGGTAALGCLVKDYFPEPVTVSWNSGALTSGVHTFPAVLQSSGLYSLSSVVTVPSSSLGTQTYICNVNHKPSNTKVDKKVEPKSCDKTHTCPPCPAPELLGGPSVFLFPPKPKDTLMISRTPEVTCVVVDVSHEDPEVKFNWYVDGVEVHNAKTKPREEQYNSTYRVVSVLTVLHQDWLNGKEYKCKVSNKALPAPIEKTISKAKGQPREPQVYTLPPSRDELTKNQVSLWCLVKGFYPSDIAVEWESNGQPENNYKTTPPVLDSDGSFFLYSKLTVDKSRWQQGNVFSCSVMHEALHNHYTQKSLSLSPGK
light: DIQMTQSPSTLSASVGDRVTITCQASQSIYRYLSWYQQKPGKAPKFLIYDASKLASGVPSRFSGSGSGTEFTLTISSVQPDDFATYYCQQAYSSGSIDNAFGGGTKVEIKRTVAAPSVFIFPPSDEQLKSGTASVVCLLNNFYPREAKVQWKVDNALQSGNSQESVTEQDSKDSTYSLSSTLTLSKADYEKHKVYACEVTHQGLSSPVTKSFNRGEC
scFv: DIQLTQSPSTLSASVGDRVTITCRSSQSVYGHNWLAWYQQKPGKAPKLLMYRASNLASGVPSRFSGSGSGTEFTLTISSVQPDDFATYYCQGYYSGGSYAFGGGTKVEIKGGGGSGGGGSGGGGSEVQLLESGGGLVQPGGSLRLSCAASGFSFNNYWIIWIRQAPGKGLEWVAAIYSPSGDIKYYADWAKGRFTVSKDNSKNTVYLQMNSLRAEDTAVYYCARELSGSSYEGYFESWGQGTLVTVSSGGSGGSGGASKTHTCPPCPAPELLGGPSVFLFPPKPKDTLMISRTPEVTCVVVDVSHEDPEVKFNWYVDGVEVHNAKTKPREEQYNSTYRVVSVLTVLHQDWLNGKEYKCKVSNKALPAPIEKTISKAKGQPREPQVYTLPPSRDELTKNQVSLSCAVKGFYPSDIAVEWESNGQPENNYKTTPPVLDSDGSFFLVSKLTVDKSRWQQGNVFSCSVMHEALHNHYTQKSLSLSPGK
notes: h11F2-6 Fab arm on Fc-knob, h18E4-19 scFv on Fc-hole; IgG1 Fc; also called three chain bispecific antibody; scFv format bispecific antibody
A Kd (Avi-human CD38 ECD [2]) of 2 to 5 nM and a Kd (Human ICAM1 ECD-Avi) of 0.1 to 0.15 nM were found for B2 in this work.

B3: αCD38(TCR) x αICAM1 (bispecific antibody, human IgG1, kappa)
heavy 1: EVQLLESGGGLVQPGGSLRLSCAASGFSFNNYWIIWIRQAPGKGLEWVAAIYSPSGDIKYYADWAKGRFTVSKDNSKNTVYLQMNSLRAEDTAVYYCARELSGSSYEGYFESWGQGTLVTVLEDLKNVFPPEVAVFEPSEAEISHTQKATLVCLATGFYPDHVELSWWVNGKEVHSGVCTDPQPLKEQPALQDSRYALSSRLRVSATFWQNPRNHFRCQVQFYGLSENDEWTQDRAKPVTQIVSAEAWGRASDKTHTCPPCPAPELLGGPSVFLFPPKPKDTLMISRTPEVTCVVVDVSHEDPEVKFNWYVDGVEVHNAKTKPREEQYNSTYRVVSVLTVLHQDWLNGKEYKCKVSNKALPAPIEKTISKAKGQPREPQVCTLPPSREEMTKNQVSLSCAVKGFYPSDIAVEWESNGQPENNYKTTPPVLDSDGSFFLVSKLTVDKSRWQQGNVFSCSVMHEALHNHYTQKSLSLSPG
light 1: DIQLTQSPSTLSASVGDRVTITCRSSQSVYGHNWLAWYQQKPGKAPKLLMYRASNLASGVPSRFSGSGSGTEFTLTISSVQPDDFATYYCQGYYSGGSYAFGGGTKVEIKPDIQNPDPAVYQLRDSKSSDKSVCLFTDFDSQTQVSQSKDSDVYITDKCVLDMRSMDFKSNSAVAWSQKSDFACANAFQNSIIPEDTFFPSPESS
heavy 2: not shown
light 2: B2 light
notes: also called TCR format bispecific antibody; TCR-chimera bispecific antibody
A Kd (Avi-human CD38 ECD [2]) of 2 to 5 nM and a Kd (Human ICAM1 ECD-Avi) of 0.1 to 0.15 nM were found for B3 in this work.

B4: h18E4-19 (antibody, V domains shown)
VH: EVQLLESGGGLVQPGGSLRLSCAASGFSFNNYWIIWIRQAPGKGLEWVAAIYSPSGDIKYYADWAKGRFTVSKDNSKNTVYLQMNSLRAEDTAVYYCARELSGSSYEGYFESWGQGTLVTV
VL: DIQLTQSPSTLSASVGDRVTITCRSSQSVYGHNWLAWYQQKPGKAPKLLMYRASNLASGVPSRFSGSGSGTEFTLTISSVQPDDFATYYCQGYYSGGSYAFGGGTKVEIK
notes: also called hu18E4-19; humanized h18E4-19 antibody
In the case of B4, the “ADCC on Daudi cells, EC50” value [3] is reported as 0.05 to 0.1 pM, the “ADCC EC50 on Daudi cells; antibody made in CHO” value [4] is reported as 12.7 pM and the “ADCC EC50 on Daudi cells; antibody made in CHO FUT8 -/- (afucosylated)” value [4] is reported as 0.4 pM. The “ADCC EC50 on HuNS1 cells; antibody made in CHO” value [4] was 80 pM, the “ADCC EC50 on HuNS1 cells; antibody made in CHO FUT8 -/- (afucosylated)” value [4] was 80 pM and the “ADCC EC50 on Raji cells; antibody made in CHO” value [4] was 14 pM. The “ADCC EC50 on Raji cells; antibody made in CHO FUT8 -/- (afucosylated)” value [4] was 8 pM and the EC50 (Avi-human CD38 ECD [5]) was 0.02 to 0.1 nM.

B5: h18E4-13 (antibody, V domains shown)
VH: EVQLLESGGGLVQPGGSLRLSCAASGFSFNNYWICWIRQAPGKGLEWVACIYSPSGDIKYYADWAKGRFTVSKDNSKNTVYLQMNSLRAEDTAVYYCARELSGSSYEGYFESWGQGTLVTVSS
VL: B4 VL
B5: binds (Avi-human CD38 ECD [2]).

B6: h18E4-19 LC S95aA (antibody, V domains shown)
VH: B4 VH
VL: B4 VL with S98A
notes: Alanine scan variant of h18E4-19; Kabat numbers, not linear positions of the entry
An EC50 (Avi-human CD38 ECD [5]) of 0.02 to 0.1 nM was found for B6 in this work.

B7: h18E4-19 HC S97A (antibody, name in Kabat numbering, V domains shown)
VH: B4 VH with S102A
VL: B4 VL
notes: as for B6
An EC50 (Avi-human CD38 ECD [5]) of 0.02 to 0.1 nM was found for B7 in this work.

B8: h18E4-19 LC G94A (antibody, V domains shown)
VH: B4 VH
VL: B4 VL with G96A
notes: as for B6
For B8, the EC50 (Avi-human CD38 ECD [6]) was > 0.5 nM.

B9: h18E4-19 HC Y100aA (antibody, name in Kabat numbering, V domains shown)
VH: B4 VH with Y106A
VL: B4 VL
notes: as for B6
An EC50 (Avi-human CD38 ECD [5]) of 0.02 to 0.1 nM was found for B9 in this work.

B10: h18E4-19 LC Y91A (antibody, V domains shown)
VH: B4 VH
VL: B4 VL with Y93A
notes: as for B6
B10 was tested, and the EC50 (Avi-human CD38 ECD [6]) was > 0.5 nM.

B11: h18E4-19 LC Y92A (antibody, V domains shown)
VH: B4 VH
VL: B4 VL with Y94A
notes: as for B6
An EC50 (Avi-human CD38 ECD [5]) of 0.02 to 0.1 nM was found for B11 in this work.

B12: h18E4-19 HC G100cA (antibody, name in Kabat numbering, V domains shown)
VH: B4 VH with G108A
VL: B4 VL
notes: as for B6
An EC50 (Avi-human CD38 ECD [7]) of 0.1 to 0.5 nM was found for B12 in this work.

B13: h18E4-19 LC S93A (antibody, V domains shown)
VH: B4 VH
VL: B4 VL with S95A
notes: as for B6
An EC50 (Avi-human CD38 ECD [7]) of 0.1 to 0.5 nM was found for B13 in this work.

B14: h18E4-19 HC G98A (antibody, V domains shown)
VH: B5 VH with C35I, C50A, G103A
VL: B4 VL
notes: as for B6
An EC50 (Avi-human CD38 ECD [5]) of 0.02 to 0.1 nM was found for B14 in this work.

B15: h18E4-19 LC G90A (antibody, V domains shown)
VH: B4 VH
VL: B4 VL with G92A
notes: as for B6
An EC50 (Avi-human CD38 ECD [7]) of 0.1 to 0.5 nM was found for B15 in this work.

B16: h18E4-19 LC G95A (antibody, V domains shown)
VH: B4 VH
VL: B4 VL with G97A
notes: as for B6
An EC50 (Avi-human CD38 ECD [5]) of 0.02 to 0.1 nM was found for B16 in this work.

B17: h18E4-19 HC F100eA (antibody, name in Kabat numbering, V domains shown)
VH: B4 VH with F110A
VL: B4 VL
notes: as for B6
An EC50 (Avi-human CD38 ECD [5]) of 0.02 to 0.1 nM was found for B17 in this work.

B18: h18E4-19 HC S102A (antibody, name in Kabat numbering, V domains shown)
VH: B4 VH with S112A
VL: B4 VL
notes: as for B6
An EC50 (Avi-human CD38 ECD [5]) of 0.02 to 0.1 nM was found for B18 in this work.

B19: h18E4-19 HC S99A (antibody, name in Kabat numbering, V domains shown)
VH: B4 VH with S104A
VL: B4 VL
notes: as for B6
An EC50 (Avi-human CD38 ECD [5]) of 0.02 to 0.1 nM was found for B19 in this work.

B20: h18E4-19 HC E95A (antibody, name in Kabat numbering, V domains shown)
VH: B4 VH with E100A
VL: B4 VL
notes: as for B6
For B20, the EC50 (Avi-human CD38 ECD [6]) was > 0.5 nM.

B21: h18E4-19 HC E100bA (antibody, name in Kabat numbering, V domains shown)
VH: B4 VH with E107A
VL: B4 VL
notes: as for B6
B21 was tested, and the EC50 (Avi-human CD38 ECD [6]) was > 0.5 nM.

B22: h18E4-19 HC E101A (antibody, name in Kabat numbering, V domains shown)
VH: B4 VH with E111A
VL: B4 VL
notes: as for B6
An EC50 (Avi-human CD38 ECD [5]) of 0.02 to 0.1 nM was found for B22 in this work.

B23: h18E4-19 LC Q89A (antibody, V domains shown)
VH: B4 VH
VL: B4 VL with Q91A
notes: as for B6
An EC50 (Avi-human CD38 ECD [5]) of 0.02 to 0.1 nM was found for B23 in this work.

B24: h18E4-19 HC L96A (antibody, name in Kabat numbering, V domains shown)
VH: B4 VH with L101A
VL: B4 VL
notes: as for B6
An EC50 (Avi-human CD38 ECD [5]) of 0.02 to 0.1 nM was found for B24 in this work.

B25: h18E4-19 HC Y100dA (antibody, name in Kabat numbering, V domains shown)
VH: B4 VH with Y109A
VL: B4 VL
notes: as for B6
With B25 the EC50 (Avi-human CD38 ECD [6]) was > 0.5 nM.

B26: h18E4-19 LC Y96A (antibody, V domains shown)
VH: B4 VH
VL: B4 VL with Y99A
notes: as for B6
An EC50 (Avi-human CD38 ECD [7]) of 0.1 to 0.5 nM was found for B26 in this work.

B27: h18E4-19 HC S100A (antibody, name in Kabat numbering, V domains shown)
VH: B4 VH with S105A
VL: B4 VL
notes: as for B6
An EC50 (Avi-human CD38 ECD [5]) of 0.02 to 0.1 nM was found for B27 in this work.
